Laboratory results as given in the supplement of paper PMC10126150.
± gives the standard deviation of the averaged measurements.
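Further: ATP exposure 15 min at 22 °C before imaging.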

The sequences below were run on ATP (assay: switch fluorescence ratio, 500 uM ATP over buffer (Cy3 cluster intensity, sum of 5 cycles each) (fold (ratio)); higher = stronger signal-on switching upon ATP binding; sequences stand for … in TCGTCGGCAGCGTCAGATGTGTATAAGAGACAGTTTTTTTTTTTTTTTTTTTTTTTTT…TC). Conditions: aptamer strand: ATP DNA aptamer (quencher-CACCTGGGGGAGTATTGCGGAGGAAGG + anchor), 100 nM annealed; ATP concentration: 500 uM.
In short: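 For every switch-domain sequence, the fluorescence ratio is the mean of per-cluster values, each being summed target-cycle Cy3 intensity over summed buffer-cycle Cy3 intensity. Clusters outside 100-1000 RFU were excluded. On a modified Illumina MiSeq flow-cell, the Cy3-labelled switching-strand clusters were annealed to 100 nM quencher-labelled ATP aptamer, imaged in selection buffer and then after 15 min with 500 uM ATP at 22 °C. Five such cycles were run, with NaOH stripping and re-annealing between them.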
In the case of TTGGCAGGGA, the switch fluorescence ratio is reported as 0.998 ± 0.018. Work on TAGTCGTTTC yielded a switch fluorescence ratio of 1.02 ± 0.035. For TGAAACACCG, the switch fluorescence ratio was 1.46 ± 0.66. In the case of AAATATAAAC, the switch fluorescence ratio is reported as 1.03 ± 0.087. With ATAGATTGTT the switch fluorescence ratio was 1.39 ± 0.59. With TCAGGGACCG the switch fluorescence ratio was 1.03 ± 0.026. Work on CGCGTTGGGG yielded a switch fluorescence ratio of 1.03 ± 0.044. CAATGGGCGT gave a switch fluorescence ratio of 1.0067 ± 0.00057. Sequence AAGGCTGGGT has a switch fluorescence ratio of 1.02 ± 0.023. TGCATCATAA was tested, and the switch fluorescence ratio was 1.01 ± 0.024. GGCCTGGGGT showed a switch fluorescence ratio of 0.996 ± 0.029. Sequence CGGATCGGGT has a switch fluorescence ratio of 1.004 ± 0.0015. ACTAGGGTTG showed a switch fluorescence ratio of 0.993 ± 0.02. In the case of ATGAATTCGG, the switch fluorescence ratio is reported as 1.01 ± 0.011. Sequence TGAGTATTTA has a switch fluorescence ratio of 0.993 ± 0.057. AGTTTGTCTG was tested, and the switch fluorescence ratio was 0.9665 ± 0.007. CAGTATGGGA gave a switch fluorescence ratio of 0.999 ± 0.02. Work on AGTTATATTG yielded a switch fluorescence ratio of 0.997 ± 0.07. TCTAATTTCC gave a switch fluorescence ratio of 1.05 ± 0.045. GTCTGTTCGC was tested, and the switch fluorescence ratio was 1.02 ± 0.085. AGGTAGTTTG was tested, and the switch fluorescence ratio was 0.9979 ± 0.0018. For AGAAAGTCAA, the switch fluorescence ratio was 1.0199 ± 1.9e-05. CAGCTGTCGG showed a switch fluorescence ratio of 1.1 ± 0.12. TTGGTTACGG gave a switch fluorescence ratio of 1.014 ± 0.0041. Work on CGCATTAAAA yielded a switch fluorescence ratio of 0.969 ± 0.024. In the case of ATGTTCACGG, the switch fluorescence ratio is reported as 1.01 ± 0.033. Work on GGAATAGGCT yielded a switch fluorescence ratio of 0.967 ± 0.059. For TAGGCTTAGC, the switch fluorescence ratio was 0.9671 ± 0.0069. For CCATAAATAG, the switch fluorescence ratio was 1.169 ± 0.0077. For GCTTTTAAGT, the switch fluorescence ratio was 0.99809 ± 0.00068. GTGAGAGCAT gave a switch fluorescence ratio of 1.05 ± 0.028. Work on CATAATAATC yielded a switch fluorescence ratio of 0.98 ± 0.026. For GGGGATTAGT, the switch fluorescence ratio was 0.997 ± 0.043. In the case of AGACACTGAC, the switch fluorescence ratio is reported as 1.45 ± 0.028. Sequence TAGATTGGCG has a switch fluorescence ratio of 0.981 ± 0.043. Work on GCCATAATAT yielded a switch fluorescence ratio of 1.01 ± 0.023. In the case of CTAGGGCATA, the switch fluorescence ratio is reported as 1.05 ± 0.047. For AGAGAGGGGT, the switch fluorescence ratio was 1.01 ± 0.047. Work on ACGTTGTTTG yielded a switch fluorescence ratio of 0.983 ± 0.02. Sequence GGGGGGGGTC has a switch fluorescence ratio of 0.989 ± 0.034. With AAAAAATCGC the switch fluorescence ratio was 1.09 ± 0.16. For GCTTGTGACG, the switch fluorescence ratio was 1.02 ± 0.058. TTAGCGAGTT was tested, and the switch fluorescence ratio was 0.979 ± 0.014. With GGAAGAATGG the switch fluorescence ratio was 0.985 ± 0.024. CAATTTTTAA was tested, and the switch fluorescence ratio was 0.9798 ± 0.0088. In the case of AGAAGCTAAG, the switch fluorescence ratio is reported as 0.996 ± 0.015. For CAAGGATAGG, the switch fluorescence ratio was 0.9984 ± 0.0084. In the case of CGAAAGGGTT, the switch fluorescence ratio is reported as 0.9983 ± 0.0072. Work on GGGGGGTACG yielded a switch fluorescence ratio of 1 ± 0.05. AATGAGGGTA showed a switch fluorescence ratio of 1.04 ± 0.019. With GATACATGGG the switch fluorescence ratio was 0.985 ± 0.038. TACTCACTTC showed a switch fluorescence ratio of 1.21 ± 0.035. TGGGGGCGAC showed a switch fluorescence ratio of 1 ± 0.057. For ACCTAGTGTG, the switch fluorescence ratio was 1.135 ± 0.0024. For ATCGGTTGTG, the switch fluorescence ratio was 1.01 ± 0.029. AGTGATGTGG gave a switch fluorescence ratio of 1 ± 0.024. In the case of TCTATTGTAA, the switch fluorescence ratio is reported as 0.991 ± 0.049. For TAAGCGCAGA, the switch fluorescence ratio was 1.01 ± 0.03. Work on GTTGCTAGAG yielded a switch fluorescence ratio of 1.006 ± 0.0035. Work on TTTTGGGTAG yielded a switch fluorescence ratio of 0.984 ± 0.03. CCGAGATCTT showed a switch fluorescence ratio of 1.03 ± 0.032. Work on AGCGATTGCC yielded a switch fluorescence ratio of 1.01 ± 0.016. CCGTTGAGTC was tested, and the switch fluorescence ratio was 1.06 ± 0.049. Work on AAATTGCTAG yielded a switch fluorescence ratio of 0.997 ± 0.032. For TAAAATGCAT, the switch fluorescence ratio was 0.979 ± 0.024. Sequence ATTTCGGAGA has a switch fluorescence ratio of 0.971 ± 0.011. TTGAGGGATA was tested, and the switch fluorescence ratio was 1.01 ± 0.055. GGGGACGAGG showed a switch fluorescence ratio of 0.999 ± 0.028. TTTTATCTAA showed a switch fluorescence ratio of 0.988 ± 0.048. ATTAAAGTGC was tested, and the switch fluorescence ratio was 0.999 ± 0.027. TTTCTTATGT was tested, and the switch fluorescence ratio was 1.03 ± 0.024. Work on TTGATTTATA yielded a switch fluorescence ratio of 0.983 ± 0.042. In the case of CTCTGCGTCA, the switch fluorescence ratio is reported as 1.32 ± 0.025. Sequence AAGGTACGAA has a switch fluorescence ratio of 1.04 ± 0.011. For AGGAGGATCG, the switch fluorescence ratio was 0.97 ± 0.079. Sequence TAATTACAGT has a switch fluorescence ratio of 0.9904 ± 0.0021. ATTAGAAGGT showed a switch fluorescence ratio of 0.994 ± 0.051. Work on GATTGGAACG yielded a switch fluorescence ratio of 0.976 ± 0.013. For TCATAAGGGC, the switch fluorescence ratio was 1.01 ± 0.12. Sequence GCTAGGGCGT has a switch fluorescence ratio of 0.972 ± 0.051. TCGGGAGGCT showed a switch fluorescence ratio of 1 ± 0.028. For AAATCGGATA, the switch fluorescence ratio was 1.03 ± 0.003. Work on AGATTGAGAA yielded a switch fluorescence ratio of 0.998 ± 0.028. CGTGGCTAAG showed a switch fluorescence ratio of 0.971 ± 0.046. Sequence ATCCGGACTT has a switch fluorescence ratio of 1.02 ± 0.034. With ATGATCCGTT the switch fluorescence ratio was 1.001 ± 0.0059. With CTCGTTGGGG the switch fluorescence ratio was 0.979 ± 0.015. With CTCGGACGGG the switch fluorescence ratio was 0.995 ± 0.046. TTGGCCTCGA showed a switch fluorescence ratio of 1.01 ± 0.039. GACGTAACCT was tested, and the switch fluorescence ratio was 1.5 ± 0.032. For TAGTAAAAAC, the switch fluorescence ratio was 0.9938 ± 0.0061. TTTGGGATGC showed a switch fluorescence ratio of 1.07 ± 0.095. Sequence TTGTGGGGGA has a switch fluorescence ratio of 1.02 ± 0.046. Work on TTTATGGTCC yielded a switch fluorescence ratio of 1.02 ± 0.029. In the case of TTATGGATGT, the switch fluorescence ratio is reported as 1.03 ± 0.013. TGGCTCGGCT was tested, and the switch fluorescence ratio was 1.03 ± 0.051. TATCTGGGCA gave a switch fluorescence ratio of 1.06 ± 0.087. With TTCAGCTGTT the switch fluorescence ratio was 1.01 ± 0.011. ACGAGAAGTT showed a switch fluorescence ratio of 1.1 ± 0.073. TTTTATTTCG gave a switch fluorescence ratio of 1.03 ± 0.068.
